Data reported in PMC4053514, “Structural Diversity in the Dandelion (Taraxacum officinale) Polyphenol Oxidase Family Results in Different Responses to Model Substrates” (PLoS ONE, 2014).
Like-named read-outs stand apart in the source and are kept apart here.

Experiments:
Experiment in all cases: spectrophotometric quinone formation, Michaelis-Menten fit
Assay type in all cases: biochemical, Taraxacum officinale
PPO-1 = system: T1, PPO-1; conditions: 50 mM acetate-phosphate, optimal pH (5.5), 25 °C, optimal SDS concentration as activator, O2 co-substrate
T1 construct: mature protein without transit peptide, N-terminal Strep2 tag with enterokinase site spacer; E. coli Rosetta2 (DE3)
Excerpt: spectrophotometric quinone formation, Michaelis-Menten fit on PPO-1

[1] = substrate: NCCc1ccc(O)c(O)c1; conditions: 50 mM acetate-phosphate, optimal pH (6.0), 25 °C, optimal SDS concentration as activator, O2 co-substrate
Excerpt: spectrophotometric quinone formation, Michaelis-Menten fit on PPO-2

[2] = substrate: NCCc1ccc(O)c(O)c1; conditions: 50 mM acetate-phosphate, optimal pH (5.0), 25 °C, optimal SDS concentration as activator, O2 co-substrate
Excerpt: spectrophotometric quinone formation, Michaelis-Menten fit on PPO-6

[3] = substrate: NCCc1ccc(O)c(O)c1; conditions: 50 mM acetate-phosphate, optimal pH (5.0), 25 °C, optimal SDS concentration as activator, O2 co-substrate; remark: listed apart in the source
Excerpt: spectrophotometric quinone formation, Michaelis-Menten fit on PPO-7

Question: With NCCc1ccc(O)c(O)c1 [dopamine, 4-(2-aminoethyl)benzene-1,2-diol] as the molecule, how does the Km (PPO-1; read-out: substrate / DA) read?
Answer: 780 ± 140 µM

Question: For Oc1ccccc1O [catechol, benzene-1,2-diol], which Km (PPO-1; read-out: substrate / CAT) is on record?
Answer: 1190 ± 510 µM

Question: With Cc1ccc(O)c(O)c1 [4-methylcatechol, 4-methylbenzene-1,2-diol] as the molecule, how does the Km (PPO-1; read-out: substrate / 4MC) read?
Answer: 1060 ± 180 µM

Question: Which Km (PPO-1; read-out: substrate / Dopac) does the source give for O=C(O)Cc1ccc(O)c(O)c1 [dihydroxyphenylacetic acid, 2-(3,4-dihydroxyphenyl)acetic acid] here?
Answer: 4950 ± 1670 µM

Question: With N[C@@H](Cc1ccc(O)c(O)c1)C(=O)O [dihydroxyphenylalanine, (S)-2-amino-3-(3,4-dihydroxyphenyl)propanoic acid] as the molecule, how does the Km (PPO-1; read-out: substrate / L-Dopa) read?
Answer: 8070 ± 2140 µM

B1: PPO-2 (Taraxacum officinale) (protein)
chain: DPIMAPDLTKCGPADLPQGAVATNCCPPFTKNIIDFKLPPPSTNLRVRPAAHLANKDYIAKFNKAIELMKALPDDDPRSFKQQAAVHCAYCDGAYDQVGFPDLDLQVHNSWLFLPFHRHYLYFFEKICGKLINDPNFAIPFWNWDTPDGMTIPAIYANKNSQLYDALRDGKHQPPSLVDLDFNGEDENLSKSKQTSTNLTIMYRQMVSSSKTASLFMGSPYRAGDEANPGGGSLESIPHGPVHIWTGDRNQPNGEDMGNFYSAARDPIFYAHHANIDRMWSVWKTLGGRRNDFTDKDWLDSAFLFYDENAELVRVKVRDALDSKKLGYVYQDVGIPWLETKPEPRLKRALSKIKKKLAVARADEHIPFAKDVFPATLDKVIKVLVPRPKKSRSKKQKDAEEEILVIEGIEVKRDEFVKFDVFVNDEDDGMRATADKTEFAGSFVNVPHKHKHGKSVKTRLRLGISELLDDLGADDDDNVLVTLVPKNKGDEVSIKGMKIEYED
notes: mature protein without transit peptide, N-terminal Strep2 tag with enterokinase site spacer; E. coli Rosetta2 (DE3)
Question: B1 was tested. Which Km [1] did it give?
Answer: 940 ± 310 µM

Question: And the kcat [1]?
Answer: 59.5 ± 13.7 s⁻¹

B2: PPO-6 (Taraxacum officinale) (protein)
chain: DPITTPDISTCVASTKGFQPKNAVRTNACCPPTLSKTVKEFVFPNDRATRIRPAAHRASPEYIAKYKAAIQKMRDLEDDDPHSFVSQAKIHCAYCNGGFTQDKHPDKELQIHNSWLFFPFHRWYLYFYERILGKLIDDPTFAIPYWNWDNPAGMSLPDFFEEGGKANPAFDAYRNSSHLAPAIADLDYDGTEKNYTCIKQLSVNLGAMNKQMIRNAGDWKSFFGGEYRAGSDPIGNKDPSVGSVEAGCHTAIHRWVGNSRLPNGEDMGNFYSAGYDPVFYVHHANVDRMWKVWKDLGIRGHIEPPDNDWRNASYVFYDENKELVRVYNKDCVRLEKLKYDYQFAPIPWKNSRPVARTKKSNIALKSVGTVKQAQDSKFPLKLDKTTKVLVKRPATNRSKEDKENANEVLLIKGVVFNGEKFVKFDVFVNDKDDVTASTAEESEFAGSFAQLPHNHGDKMLMTSSARFGLTELLEDIDAEDDESILVTLVPKVGCEEVTIGEIKVELVPIEE
notes: mature protein without transit peptide, N-terminal Strep2 tag with enterokinase site spacer; E. coli Rosetta2 (DE3); disulfide-linked tetramer
Question: With B2 as the molecule, how does the Km [2] read?
Answer: 5620 ± 1140 µM

Question: And the kcat [2]?
Answer: 61.7 ± 10.6 s⁻¹

B3: PPO-7 (Taraxacum officinale) (protein)
chain: APITTPDISTCIPSESGFNTEDSVRSNQCCPPATSSTIPKEFVFPKDTTTRIRPAAHRATPEYVAKYKAAIQAMRDLPDDHPHSFVSQAKIHCAYCNGGYTQVASGFPDKMLQVHNSWLFFPFHRWYLYFYERILGKLIDDPTFALPYWNWDHPAGMTLPAFFETDGKRNPVFDAYRNVTHVTPAAIVDLDYNGSDSGAPCLQQINTNLTAMYKQMVSNAADPLSFFGGVYKAGDDPFGNGDPSVGSVEAGCHTAVHRWVGNPRMMNTEDMGNFYSAGYDPAFYVHHANVDRMWKVWKDLGIPGHSEPTDPDWLNASFVFYDENEQLVRVYNKDCVNLENLKYDYELSPLPWLKNRPVPHTPKPVDNAAKPAIKLPEVKFPVKLDKTVKVYVKRPVKKRGKAEKDKVSEQLVLKGIKFNSTKFVKVDVFVNDQDDAPAILPSESEFVGSFAQLPHGRSGRGRGRGHGHSELMTSAARFGLTELLEDIGAEDDEYILVTLVPKAGSEDVTVEEITVELVPVNP
notes: mature protein without transit peptide, N-terminal Strep2 tag with enterokinase site spacer; E. coli Rosetta2 (DE3); tetramer
Question: B3 was tested. Which Km [3] did it give?
Answer: 4490 ± 2260 µM

Question: What about the kcat [3] of the same molecule?
Answer: 22.6 ± 2.5 s⁻¹
